# Test results from patent US20040265965.
# Values joined by “and” are separate entries in the source; they are usually repeats but may differ in a detail not shown here. Equal values may be shown once.
# Molecular target: MBP-C125Swe (maltose binding protein fused to the C-terminal 125 amino acids of the Swedish variant of APP), P05067
# Sequence (P05067 whole entry, looked up, change not shown, the tested form may be a part): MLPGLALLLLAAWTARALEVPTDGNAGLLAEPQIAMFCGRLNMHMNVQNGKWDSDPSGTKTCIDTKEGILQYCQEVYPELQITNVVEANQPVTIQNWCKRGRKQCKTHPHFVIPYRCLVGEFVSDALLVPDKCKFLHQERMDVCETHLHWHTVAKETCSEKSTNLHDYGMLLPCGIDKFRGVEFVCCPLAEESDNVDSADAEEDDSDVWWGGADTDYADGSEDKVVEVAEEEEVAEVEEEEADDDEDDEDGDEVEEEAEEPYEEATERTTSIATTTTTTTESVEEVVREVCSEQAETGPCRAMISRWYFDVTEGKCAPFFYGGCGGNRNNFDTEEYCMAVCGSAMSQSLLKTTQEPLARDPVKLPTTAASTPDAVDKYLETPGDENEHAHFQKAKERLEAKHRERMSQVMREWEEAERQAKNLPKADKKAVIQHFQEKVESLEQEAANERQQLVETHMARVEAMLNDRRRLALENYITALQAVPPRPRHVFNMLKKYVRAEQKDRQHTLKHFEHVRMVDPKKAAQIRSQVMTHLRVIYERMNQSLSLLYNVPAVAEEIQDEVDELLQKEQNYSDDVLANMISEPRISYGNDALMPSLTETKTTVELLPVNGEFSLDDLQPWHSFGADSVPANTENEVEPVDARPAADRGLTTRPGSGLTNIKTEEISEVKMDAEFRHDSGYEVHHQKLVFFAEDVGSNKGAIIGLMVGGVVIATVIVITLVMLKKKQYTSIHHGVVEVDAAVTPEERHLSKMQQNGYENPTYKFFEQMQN
Protein,Enzyme activity,Activity (pM/h/ng enz),Cleavage Product (pM),Substrate Conversion (%),specific activity
"452H,NINL soluble BACE (R42L43P44R45 changed to NINL, histidine tag), baculovirus/Sf9 (protein) NINLETDEEPEEPGRRGSFVEMVDNLRGKSGQGYYVEMTVGSPPQTLNILVDTGSSNFAVGAAPHPFLHRYYQRQLSSTYRDLRKGVYVPYTQGKWEGELGTDLVSIPHGPNVTVRANIAAITESDKFFINGSNWEGILGLAYAEIARPDDSLEPFFDSLVKQTHVPNLFSLQLCGAGFPLNQSEVLASVGGSMIIGGIDHSLYTGSLWYTPIRREWYYEVIIVRVEINGQDLKMDCKEYNYDKSIVDSGTTNLRLPKKVFEAAVKSIKAASSTEKFPDGFWLGEQLVCWQAGTTPWNIFPVISLYLMGEVTNQSFRITILPQQYLRPVEDVATSQDDCYKFAISQSSTGTVMGAVIMEGFYVVFDRARKRIGFAVSACHVHDEFRTAAVEGPFVTLDMEDCGYNIPQTDE",good activity was obtained for all samples tested,,,,
"Δ2,3-452H,NINL soluble BACE (S174I, N223A, R42L43P44R45 changed to NINL, histidine tag), baculovirus/Sf9 (protein) NINLETDEEPEEPGRRGSFVEMVDNLRGKSGQGYYVEMTVGSPPQTLNILVDTGSSNFAVGAAPHPFLHRYYQRQLSSTYRDLRKGVYVPYTQGKWEGELGTDLVSIPHGPNVTVRANIAAITESDKFFINGINWEGILGLAYAEIARPDDSLEPFFDSLVKQTHVPNLFSLQLCGAGFPLAQSEVLASVGGSMIIGGIDHSLYTGSLWYTPIRREWYYEVIIVRVEINGQDLKMDCKEYNYDKSIVDSGTTNLRLPKKVFEAAVKSIKAASSTEKFPDGFWLGEQLVCWQAGTTPWNIFPVISLYLMGEVTNQSFRITILPQQYLRPVEDVATSQDDCYKFAISQSSTGTVMGAVIMEGFYVVFDRARKRIGFAVSACHVHDEFRTAAVEGPFVTLDMEDCGYNIPQTDE",good activity was obtained for all samples tested,,,,
"Δ2,3-452H soluble BACE (S174I, N223A, histidine tag), baculovirus/Sf9 (protein) TQHGIRLPLRSGLGGAPLGLRLPRETDEEPEEPGRRGSFVEMVDNLRGKSGQGYYVEMTVGSPPQTLNILVDTGSSNFAVGAAPHPFLHRYYQRQLSSTYRDLRKGVYVPYTQGKWEGELGTDLVSIPHGPNVTVRANIAAITESDKFFINGINWEGILGLAYAEIARPDDSLEPFFDSLVKQTHVPNLFSLQLCGAGFPLAQSEVLASVGGSMIIGGIDHSLYTGSLWYTPIRREWYYEVIIVRVEINGQDLKMDCKEYNYDKSIVDSGTTNLRLPKKVFEAAVKSIKAASSTEKFPDGFWLGEQLVCWQAGTTPWNIFPVISLYLMGEVTNQSFRITILPQQYLRPVEDVATSQDDCYKFAISQSSTGTVMGAVIMEGFYVVFDRARKRIGFAVSACHVHDEFRTAAVEGPFVTLDMEDCGYNIPQTDE",good activity was obtained for all samples tested,,,,
"Δ2,3-452Flag soluble BACE (S174I, N223A) (protein) TQHGIRLPLRSGLGGAPLGLRLPRETDEEPEEPGRRGSFVEMVDNLRGKSGQGYYVEMTVGSPPQTLNILVDTGSSNFAVGAAPHPFLHRYYQRQLSSTYRDLRKGVYVPYTQGKWEGELGTDLVSIPHGPNVTVRANIAAITESDKFFINGINWEGILGLAYAEIARPDDSLEPFFDSLVKQTHVPNLFSLQLCGAGFPLAQSEVLASVGGSMIIGGIDHSLYTGSLWYTPIRREWYYEVIIVRVEINGQDLKMDCKEYNYDKSIVDSGTTNLRLPKKVFEAAVKSIKAASSTEKFPDGFWLGEQLVCWQAGTTPWNIFPVISLYLMGEVTNQSFRITILPQQYLRPVEDVATSQDDCYKFAISQSSTGTVMGAVIMEGFYVVFDRARKRIGFAVSACHVHDEFRTAAVEGPFVTLDMEDCGYNIPQTD",,15800 pM/h/ng enz and 15700 pM/h/ng enz,109 pM and 108 pM,5.19% and 5.16%,"all three proteins (452 Flag, Δ3-452Flag and Δ2,3-452Flag) had similar specific activities"
"452Flag soluble BACE (membrane truncated BACE with C-terminal Flag epitope tag, fully glycosylated) (protein) TQHGIRLPLRSGLGGAPLGLRLPRETDEEPEEPGRRGSFVEMVDNLRGKSGQGYYVEMTVGSPPQTLNILVDTGSSNFAVGAAPHPFLHRYYQRQLSSTYRDLRKGVYVPYTQGKWEGELGTDLVSIPHGPNVTVRANIAAITESDKFFINGSNWEGILGLAYAEIARPDDSLEPFFDSLVKQTHVPNLFSLQLCGAGFPLNQSEVLASVGGSMIIGGIDHSLYTGSLWYTPIRREWYYEVIIVRVEINGQDLKMDCKEYNYDKSIVDSGTTNLRLPKKVFEAAVKSIKAASSTEKFPDGFWLGEQLVCWQAGTTPWNIFPVISLYLMGEVTNQSFRITILPQQYLRPVEDVATSQDDCYKFAISQSSTGTVMGAVIMEGFYVVFDRARKRIGFAVSACHVHDEFRTAAVEGPFVTLDMEDCGYNIPQTD",,14300 pM/h/ng enz and 15200 pM/h/ng enz,85 pM and 90 pM,4.05% and 4.30%,"all three proteins (452 Flag, Δ3-452Flag and Δ2,3-452Flag) had similar specific activities"
Δ3-452Flag soluble BACE (N223A) (protein) TQHGIRLPLRSGLGGAPLGLRLPRETDEEPEEPGRRGSFVEMVDNLRGKSGQGYYVEMTVGSPPQTLNILVDTGSSNFAVGAAPHPFLHRYYQRQLSSTYRDLRKGVYVPYTQGKWEGELGTDLVSIPHGPNVTVRANIAAITESDKFFINGSNWEGILGLAYAEIARPDDSLEPFFDSLVKQTHVPNLFSLQLCGAGFPLAQSEVLASVGGSMIIGGIDHSLYTGSLWYTPIRREWYYEVIIVRVEINGQDLKMDCKEYNYDKSIVDSGTTNLRLPKKVFEAAVKSIKAASSTEKFPDGFWLGEQLVCWQAGTTPWNIFPVISLYLMGEVTNQSFRITILPQQYLRPVEDVATSQDDCYKFAISQSSTGTVMGAVIMEGFYVVFDRARKRIGFAVSACHVHDEFRTAAVEGPFVTLDMEDCGYNIPQTD,,19100 pM/h/ng enz and 20200 pM/h/ng enz,126 pM and 119 pM,5.68% and 6.01%,"all three proteins (452 Flag, Δ3-452Flag and Δ2,3-452Flag) had similar specific activities"
